In doi:10.1101/2020.12.08.416958:

Target: L-lactate oxidase (UniProt Q44467)
Test: ITC

UniProt Q44467, sequence (Q44467 whole entry): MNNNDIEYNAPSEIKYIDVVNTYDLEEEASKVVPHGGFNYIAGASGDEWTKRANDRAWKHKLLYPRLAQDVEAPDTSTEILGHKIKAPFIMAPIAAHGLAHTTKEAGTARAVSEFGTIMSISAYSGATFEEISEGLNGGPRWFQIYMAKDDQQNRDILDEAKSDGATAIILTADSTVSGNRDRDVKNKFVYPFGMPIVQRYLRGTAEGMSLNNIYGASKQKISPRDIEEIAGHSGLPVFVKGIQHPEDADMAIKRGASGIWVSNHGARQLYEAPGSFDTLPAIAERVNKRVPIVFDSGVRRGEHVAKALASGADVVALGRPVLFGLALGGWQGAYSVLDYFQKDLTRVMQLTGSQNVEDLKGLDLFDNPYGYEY

maximum enthalpy: 0.7 kcal/mol
Substance: Poly-L-lysine hydrobromide (molecular weight 4,000-15,000 Da) (peptide)
